Test system: CNCCCC(=O)c1cccnc1
Test: purified protein
Type: biochemical, Pseudomonas putida
Details: Tris-HCl pH 8.0, 30 C, O2 as acceptor

Row | Substance | Km | kcat | kcat/Km
1 | Pnao (Pseudomonas putida S16; N224I/W220Y) | 570 ± 50 µM | 383 ± 19 s⁻¹ | 680000 M⁻¹ s⁻¹
2 | Pnao (Pseudomonas putida S16; F388A) | 54 ± 1 µM | 0.75 ± 0.01 s⁻¹ | 14000 M⁻¹ s⁻¹
3 | Pnao (Pseudomonas putida S16; R96A) | 56 ± 1 µM | 0.75 ± 0.06 s⁻¹ | 13000 M⁻¹ s⁻¹
4 | Pnao (Pseudomonas putida S16; R96A/S461A) | 83 ± 12 µM | 0.39 ± 0.01 s⁻¹ | 4700 M⁻¹ s⁻¹
5 | Pnao (Pseudomonas putida S16) | 32 ± 1 µM | 197 ± 1 s⁻¹ | 6.1e+06 M⁻¹ s⁻¹
6 | Pnao (Pseudomonas putida S16; N224G/W220Y) | 150 ± 0 µM | 135 ± 2 s⁻¹ | 910000 M⁻¹ s⁻¹
